Experimental data published in patent publication US20090099193.

Target: TK substrate 1 (HTRF KinEASE-TK kit; Cisbio Inc.)

B1: EML4-ALK fusion polypeptide v3 having the FLAG tag at the N-terminus (protein)
chain: MDGFAGSLDDSISAASTSDVQDRLSALESRVQQQEDEITVLKAALADVLRRLAISEDHVASVKKSVSSKGQPSPRAVIPMSCITNGSGANRKPSHTSAVSIAGKETLSSAAKSGTEKKKEKPQGQREKKEESHSNDQSPQIRASPSPQPSSQPLQIHRQTPESKNATPTKSIKRPSPAEKSHNSWENSDDSRNKLSKIPSTPKLIPKVTKTADKHKDVIINQAKMSTRKKNSQVYRRKHQELQAMQMELQSPEYKLSKLRTSTIMTDYNPNYCFAGKTSSISDLKEVPRKNITLIRGLGHGAFGEVYEGQVSGMPNDPSPLQVAVKTLPEVCSEQDELDFLMEALIISKFNHQNIVRCIGVSLQSLPRFILLELMAGGDLKSFLRETRPRPSQPSSLAMLDLLHVARDIACGCQYLEENHFIHRDIAARNCLLTCPGPGRVAKIGDFGMARDIYRASYYRKGGCAMLPVKWMPPEAFMEGIFTSKTDTWSFGVLLWEIFSLGYMPYPSKSNQEVLEFVTSGGRMDPPKNCPGPVYRIMTQCWQHQPEDRPNFAIILERIEYCTQDPDVINTALPIEYGPLVEEEEKVPVRPKDPEGVPPLLVSQQAKREEERSPAAPPPLPTTSSGKAAKKPTAAEVSVRVPRGPAVEGGHVNMAFSQSNPPSELHRVHGSRNKPTSLWNPTYGSWFTEKPTKKNNPIAKKEPHERGNLGLEGSCTVPPNVATGRLPGASLLLEPSSLTANMKEVPLFRLRHFPCGNVNYGYQQQGLPLEAATAPGAGHYEDTILKSKNSMNQPGP
  count of HTRF (phosphorylation of the peptide substrate), 100 uM ATP against no ATP: increased by about 20 times by the addition of ATP compare to no addition of ATP
